From IntAct's records for PubMed 21575865

B1: Transcriptional regulator ERG (Homo sapiens), P11308-1 (parent)
chain: MIQTVPDPAAHIKEALSVVSEDQSLFECAYGTPHLAKTEMTASSSSDYGQTSKMSPRVPQQDWLSQPPARVTIKMECNPSQVNGSRNSPDECSVAKGGKMVGSPDTVGMNYGSYMEEKHMPPPNMTTNERRVIVPADPTLWSTDHVRQWLEWAVKEYGLPDVNILLFQNIDGKELCKMTKDDFQRLTPSYNADILLSHLHYLRETPLPHLTSDDVDKALQNSPRLMHARNTDLPYEPPRRSAWTGHGHPTPQSKAAQPSPSTVPKTEDQRPQLDPYQILGPTSSRLANPGSGQIQLWQFLLELLSDSSNSSCITWEGTNGEFKMTDPDEVARRWGERKSKPNMNYDKLSRALRYYYDKNIMTKVHGKRYAYKFDFHGIAQALQPHPPESSLYKYPSDLPYMGSYHAHPQKMNFVAPHPPALPVTSSSFFAAPNPYWNSPTGGIYPNTRLPTSHMPSHLGTYY

Variants of: B1
Conditions: with prkdc_human PRKDC

| effect of a mutation on the interaction | Variant |
| --- | --- |
| disrupting interaction | Y356A |
